This is an account of results in PMC6356362.

One may read the Kd as a measure of binding affinity in units of concentration. For orientation: koff means the first-order rate constant of dissociation. Broadly, the kon is the second-order rate constant of association.

This experiment concerns the target recombinant GP of EBOV (Mayinga strain), mucin and TM domains-deleted protein (GP[change] sequence w (Zaire ebolavirus (EBOV), Mayinga strain), Q05320. As to the kind of experiment: SPR. Particulars: remark: other sources report otherwise.

B1: recombinant human surfactant protein D (hSP-D) dodecamers, P35247 21-375 (natural protein)
chain: AEMKTYSHRTMPSACTLVMCSSVESGLPGRDGRDGREGPRGEKGDPGLPGAAGQAGMPGQAGPVGPKGDNGSVGEPGPKGDTGPSGPPGPPGVPGPAGREGPLGKQGNIGPQGKPGPKGEAGPKGEVGAPGMQGSAGARGLAGPKGERGVPGERGVPGNTGAAGSAGAMGPQGSPGARGPPGLKGDKGIPGDKGAKGESGLPDVASLRQQVEALQGQVQHLQAAFSQYKKVELFPNGQSVGEKIFKTAGFVKPFTEAQLLCTQAGGQLASPRSAAENAALQQLVVAKNEAAFLSMTDSKTEGKFTYPTGESLVYSNWAPGEPNDDGGSEDCVEIFTNGKWNDRACGEKRLVVCEF
Turning to B1, the Kd came to 0.33 nM, the koff came to 0.00121 s⁻¹ and the kon turned out to be 3.65e+06 M⁻¹ s⁻¹.
